What was measured:
[1] = biological target: SARS-CoV-2 spike S2 subunit (SARS-CoV-2, UniProt P0DTC2 SEQ:1-528); experiment: BLI; conditions: label: 5'-biotin
[2] = biological target: T1, SARS-CoV-2 spike protein trimer (SARS-CoV-2, UniProt P0DTC2); experiment: ELONA
Method: One ELONA plate (immobilised with the S1 binding aptamer A3) was then incubated with a fixed concentration (0.5 μM) of either the aptamer population isolated against the S2 subunit of the SARS-CoV-2 spike protein (S2_8R pool) or full-length aptamer clones S2_A2 (SEQ ID NO: 146), S2_B1 (SEQ ID NO: 150) and S2_G1 (SEQ ID NO: 171) (FIG. 16).

[3] = biological target: T2, SARS-CoV spike S1 subunit (SARS-CoV, UniProt P59594 SEQ:14-667); experiment: ELONA; conditions: tags: SinoBiological; label: 5'-biotin
[4] = biological target: T3, SARS-CoV-2 spike S1 subunit (SARS-CoV-2, UniProt P0DTC2 SEQ:1-670); experiment: BLI; conditions: tags: His tag, SinoBiological 40591-V08B1; label: 5'-biotin
[5] = biological target: T2, SARS-CoV spike S1 subunit; experiment: BLI; conditions: tags: SinoBiological; label: 5'-biotin
SARS-CoV-2 spike RBD = SARS-CoV-2 spike RBD (SARS-CoV-2, UniProt P0DTC2 SEQ:1-223); experiment: BLI; conditions: tags: His tag, SinoBiological 40592-V08H; label: 5'-biotin
[6] = biological target: T3, SARS-CoV-2 spike S1 subunit; experiment: BLI; conditions: tags: His tag, SinoBiological 40591-V08B1; label: 5'-biotin; remark: listed apart in the source
Method: The affinity of four chosen aptamers (aptamer S1_A3-A (SEQ ID NO: 4); aptamer S1_A6 (SEQ ID NO: 8); aptamer S1_A8 (SEQ ID NO: 9); aptamer S1_F2 (SEQ ID NO: 43)) was determined using the BLI assay according to the protocol described above. The biotinylated aptamers were immobilised onto streptavidin biosensor probes (as described above) and then interaction monitored with a concentration series of SARS-CoV-2 Spike protein S1 (250 nM, 125 nM, 62.5 nM, 31.25 nM, 15.63 nM, 7.81 nM, 0 nM diluted in 1× ‘high salt’ aptamer selection buffer). KD values were calculated using the ForteBio software (ForteBio Data Analysis 8.0,), using a 2:1 binding model (FIGS. 6 & 7).

[7] = biological target: T1, SARS-CoV-2 spike protein trimer; experiment: BLI; conditions: label: 5'-biotin
Excerpt: The aptamers described herein have been isolated using recombinant proteins which represent portions of the full viral surface spike protein (SEQ ID NO: 117). In particular, an amino acid sequence comprising residues Ser686 to Pro1213 of SEQ ID NO: 119 was used to isolate aptamers against the S2 subunit from the SARS-CoV-2 spike protein. For diagnostic and therapeutic applications of the aptamers, it is desirable that the aptamers are capable of binding to the spike protein in the full trimeric form. For example, any aptamers which bind to regions of the monomer which are not accessible in the trimeric spike may not be capable of binding to the virus and so would be less likely to perform well as a diagnostic or therapeutic. Several of the isolated aptamers and Optimers isolated against the S2 subunit of the SARS-CoV-2 spike protein (SEQ ID NO:119), were assessed for binding to the full trimeric spike using the BLI assay described above. Briefly, exemplar Optimers were immobilised onto BLI sensor probes and assessed for the ability to bind to the full SARS-CoV-2 spike protein trimer at a range of concentrations (500 nM, 166 nM, 55 nM, 18.5 nM, 6.1 nM, 2 nM and 0.6 nM in 1× ‘high salt’ aptamer selection buffer). […] Importantly, each of the S2_A2_F12 SEQ ID NO: 179), S2_B1_F12 SEQ ID NO: 188) and S2_G1_F21 (SEQ ID NO: 190) aptamers has a rapid association rate (0-120 sec) and a slow dissociation rate (120-240 sec); which may be important for many diagnostic applications.

B1: S2_G1 (ssDNA)
DNA: CCAGTGTAGACTACTCAATGCGGCTGTGTGACTTGACCTCTGGATATGGGTGGGAGGGATGGGTACTATCCACAGGTCAACC
Which results are given for B1?
binding result [1]: binds; binding result [2]: binds

B2: S1_A3_F18 (ssDNA)
DNA: AATGCGTGGGAAGGGTGGGTGGGAGCATTGATA
What does the source list for B2?
binding result [3]: no binding; binding result [4]: binds

B3: S1_A3-A (ssDNA)
DNA: CCAGTGTAGACTACTCAATGCGTGGGAAGGGTGGGTGGGAGCATTGATAACTCGGAGGAGTGTACTATCCACAGGTCAACC
Which results are given for B3?
binding result [5]: no binding; binding result (SARS-CoV-2 spike RBD): binds; binding result [6]: binds; binding result ([2]; label: 5' biotin): binds

B4: S2_A2_F17 (ssDNA)
DNA: AATGCCGATGGGTCGGGGGGGTGGG
What does the source list for B4?
binding result [1]: binds; binding result [7]: binds

B5: S2_B1_F18 (ssDNA)
DNA: AATGCCGTGGACTGGTCGGGTTTGGATTCGGCA
Does B5 bind [1]?
Result: binds

Does B5 bind [7]?
Result: binds

B6: S2_G1_F22 (ssDNA)
DNA: TGGATATGGGTGGGAGGGATGGGT
Does B6 bind [1]?
Result: binds

Does B6 bind [7]?
Result: binds

Reference: patent publication US20230228751 (APTAMER DIAGNOSTICS LIMITED, published 2023)
